Measured values as given in article PMC3244446, “Soluble CD44 Interacts with Intermediate Filament Protein Vimentin on Endothelial Cell Surface” (PLoS ONE, 2011).
Values joined by “and” are separate entries in the source; they are usually repeats but may differ in a detail not shown here. Equal entries are not always repeated.

Key:
Settings in all cases: both partners purified
[1] = biological target: T1, recombinant full length human vimentin, His-tagged (human, UniProt P08670 1-466); assay: SPR; Biacore3000; vimentin amine-coupled to CM5 chip; CD443MUT 0.46–123 µM injected; 50 mM Tris, 150 mM NaCl, pH 8.0; parallel two-site binding model and equilibrium analysis (equation 1)
T1 construct: vimentin, human, full length; The oligomeric state in the assays is not measured; the discussion supposes unit-length filaments; also called recombinant vimentin; source: expressed using pET15b vector
T1 sequence (P08670 whole entry): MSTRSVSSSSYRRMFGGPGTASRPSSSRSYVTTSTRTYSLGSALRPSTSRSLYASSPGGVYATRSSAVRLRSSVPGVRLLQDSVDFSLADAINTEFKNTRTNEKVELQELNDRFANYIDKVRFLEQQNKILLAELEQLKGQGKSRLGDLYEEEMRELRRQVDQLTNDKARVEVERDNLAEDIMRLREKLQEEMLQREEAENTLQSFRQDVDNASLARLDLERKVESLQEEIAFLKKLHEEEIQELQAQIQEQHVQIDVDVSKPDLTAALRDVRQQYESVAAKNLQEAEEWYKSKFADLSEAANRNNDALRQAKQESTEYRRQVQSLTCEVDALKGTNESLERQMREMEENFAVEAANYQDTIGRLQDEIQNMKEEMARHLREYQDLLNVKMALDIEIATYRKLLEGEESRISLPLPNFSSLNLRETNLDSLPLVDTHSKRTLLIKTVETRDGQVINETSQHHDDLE

[2] = biological target: T1, recombinant full length human vimentin, …; assay: as above; remark: listed apart in the source
[3] = biological target: T1, recombinant full length human vimentin, …; assay: ITC; 50 mM Tris, 150 mM NaCl, pH 8.0, 25°C; two preparations of CD443MUT (A, B), two pairs of concentrations each; n is vimentin/CD443MUT (mol/mol)
[4] = biological target: T1, recombinant full length human vimentin, …; assay: pull-down; GST-CD44HABD or GST-CD443MUT with recombinant vimentin

KD of the low affinity site [1] | KD from equilibrium response values (equation 1) [2] | KD of the high-affinity site (Kdiss1/Kass1) [2] | stoichiometry N [2] | stoichiometry N [3] | binding result [4] | Binder
15 µM | 15 ± 2 µM | 0.074 µM | 6.2 mol/mol | 9.9 mol/mol and 7.2 mol/mol |  | CD443MUT (CD44HABD^R41AR78SY79S), recombinant, unlabeled (domain or fragment, human, UniProt P16070 21-132, looked up, Two preparations (A, B) were used in ITC; also called CD44HABD Arg41Ala, Arg78Ser, Tyr79Ser triple mutant; source: expressed using pET11c vector) QIDLNITCRFAGVFHVEKNGAYSISRTEAADLCKAFNSTLPTMAQMEKALSIGFETCSSGFIEGHVVIPRIHPNSICAANNTGVYILTSNTSQYDTYCFNASAPPEEDCTSV
 |  |  |  |  | binds | GST-tagged CD44 hyaluronan binding domain 21–132 (CD44HABD) (domain or fragment, human, UniProt P16070 21-132, looked up, also called GST-HABD; CD44 HABD 21–132; source: recombinant GST fusion-protein, purified as described [27]) QIDLNITCRFAGVFHVEKNGRYSISRTEAADLCKAFNSTLPTMAQMEKALSIGFETCRYGFIEGHVVIPRIHPNSICAANNTGVYILTSNTSQYDTYCFNASAPPEEDCTSV
